In US7919236 (GIVAUDAN, dated 2011):

Tests used:
Assay in all cases: cell-based or functional assay
[1] = target: human TAS1R2/TAS1R3 sweet taste receptor heterodimer (human) (UniProt Q8TE23)
[2] = target: T1, mouse T2R5 bitter receptor (mouse, UniProt Q9JKT4 1-300)
T1 sequence (looked up): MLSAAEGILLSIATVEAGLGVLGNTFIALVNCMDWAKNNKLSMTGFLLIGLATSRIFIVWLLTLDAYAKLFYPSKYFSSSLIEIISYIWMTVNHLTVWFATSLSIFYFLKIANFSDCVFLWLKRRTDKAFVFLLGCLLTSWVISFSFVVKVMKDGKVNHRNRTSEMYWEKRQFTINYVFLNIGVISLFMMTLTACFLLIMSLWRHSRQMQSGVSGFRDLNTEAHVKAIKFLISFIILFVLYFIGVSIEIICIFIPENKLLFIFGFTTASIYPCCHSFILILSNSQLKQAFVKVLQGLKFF

[3] = target: human TAS2R16 bitter receptor (human) (UniProt Q9NYV7)
Sequence of human TAS2R16 bitter receptor (human) (Q9NYV7 whole entry): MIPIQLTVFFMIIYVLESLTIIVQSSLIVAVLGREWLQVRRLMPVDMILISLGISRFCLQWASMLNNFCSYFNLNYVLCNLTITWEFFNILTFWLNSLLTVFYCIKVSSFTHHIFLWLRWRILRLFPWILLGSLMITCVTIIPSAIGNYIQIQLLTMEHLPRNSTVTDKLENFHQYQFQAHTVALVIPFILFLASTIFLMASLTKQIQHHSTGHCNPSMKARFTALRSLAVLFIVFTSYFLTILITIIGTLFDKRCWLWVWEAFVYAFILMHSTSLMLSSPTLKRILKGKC

[4] = target: human TAS1R2/TAS1R3 sweet taste receptor heterodimer (human, UniProt Q8TE23 20-839; Q7RTX0 21-852)
Sequence of human TAS1R2/TAS1R3 sweet taste receptor heterodimer (Q8TE23 20-839, chain 1 of 2): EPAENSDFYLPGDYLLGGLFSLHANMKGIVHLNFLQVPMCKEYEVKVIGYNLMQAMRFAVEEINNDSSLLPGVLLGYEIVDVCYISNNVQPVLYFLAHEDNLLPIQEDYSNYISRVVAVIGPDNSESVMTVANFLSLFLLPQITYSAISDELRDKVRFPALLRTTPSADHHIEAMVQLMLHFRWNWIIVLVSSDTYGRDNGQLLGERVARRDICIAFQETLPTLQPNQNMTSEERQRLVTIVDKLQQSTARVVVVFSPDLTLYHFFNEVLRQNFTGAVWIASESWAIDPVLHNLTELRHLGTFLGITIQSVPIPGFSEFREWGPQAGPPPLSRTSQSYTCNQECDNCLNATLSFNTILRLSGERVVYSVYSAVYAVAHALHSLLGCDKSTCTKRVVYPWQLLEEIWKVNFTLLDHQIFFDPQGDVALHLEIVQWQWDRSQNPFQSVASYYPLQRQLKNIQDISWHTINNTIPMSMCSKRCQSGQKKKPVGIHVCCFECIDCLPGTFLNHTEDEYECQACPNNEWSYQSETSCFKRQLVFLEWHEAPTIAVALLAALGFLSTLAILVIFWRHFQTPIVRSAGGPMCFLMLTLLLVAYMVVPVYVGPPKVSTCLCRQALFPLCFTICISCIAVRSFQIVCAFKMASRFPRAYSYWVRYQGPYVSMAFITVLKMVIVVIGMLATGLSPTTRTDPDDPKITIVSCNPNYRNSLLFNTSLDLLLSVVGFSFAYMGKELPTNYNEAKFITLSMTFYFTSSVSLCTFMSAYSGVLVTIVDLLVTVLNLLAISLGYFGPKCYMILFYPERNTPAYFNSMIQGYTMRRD
Sequence of human TAS1R2/TAS1R3 sweet taste receptor heterodimer (Q7RTX0 21-852, chain 2 of 2): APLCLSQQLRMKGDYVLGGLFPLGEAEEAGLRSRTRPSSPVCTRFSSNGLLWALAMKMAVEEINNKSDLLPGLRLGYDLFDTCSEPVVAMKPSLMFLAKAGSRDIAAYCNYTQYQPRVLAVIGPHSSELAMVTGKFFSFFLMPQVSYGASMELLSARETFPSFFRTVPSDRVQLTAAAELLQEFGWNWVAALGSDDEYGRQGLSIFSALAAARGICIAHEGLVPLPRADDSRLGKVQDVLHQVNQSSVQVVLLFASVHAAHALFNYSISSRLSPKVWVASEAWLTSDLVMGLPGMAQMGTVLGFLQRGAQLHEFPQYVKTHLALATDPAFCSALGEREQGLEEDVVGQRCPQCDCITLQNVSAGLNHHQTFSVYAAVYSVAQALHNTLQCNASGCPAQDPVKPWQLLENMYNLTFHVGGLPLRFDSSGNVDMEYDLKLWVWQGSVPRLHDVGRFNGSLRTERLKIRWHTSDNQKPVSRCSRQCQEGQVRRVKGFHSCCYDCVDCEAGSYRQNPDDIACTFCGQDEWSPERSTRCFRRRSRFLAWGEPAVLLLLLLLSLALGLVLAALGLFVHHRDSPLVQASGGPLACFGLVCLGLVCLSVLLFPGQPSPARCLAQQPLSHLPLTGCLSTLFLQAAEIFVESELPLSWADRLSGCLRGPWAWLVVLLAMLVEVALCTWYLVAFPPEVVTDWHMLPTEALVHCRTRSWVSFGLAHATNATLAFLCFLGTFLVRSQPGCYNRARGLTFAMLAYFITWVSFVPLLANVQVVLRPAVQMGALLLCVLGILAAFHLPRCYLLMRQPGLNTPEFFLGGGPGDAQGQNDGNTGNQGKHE

Sequence of human TAS1R2/TAS1R3 sweet taste receptor heterodimer (human) (Q8TE23 20-839, chain 1 of 2): as the sequence (Q8TE23 20-839, chain 1 of 2) above
Sequence of human TAS1R2/TAS1R3 sweet taste receptor heterodimer (human) (Q7RTX0 21-852, chain 2 of 2, further chain): as the sequence (Q7RTX0 21-852, chain 2 of 2) above

Gα15
increase in mean Fluo-4 calcium fluorescence over baseline after 2.5 mM sucralose [1]: 1300 RFU

wild-type Gα16 (from UniProt P30679 1-374)
increase in mean Fluo-4 calcium fluorescence over baseline after 10 µM cycloheximide [2]: 2570 RFU
increase in mean Fluo-4 calcium fluorescence over baseline after 5 mM phenyl-β-D-glucopyranoside [3]: 3490 RFU

B1: Gα16-gustducin44 chimeric G-protein (other)
chain: MARSLTWRCCPWCLTEDEKAAARVDQEINRILLEQKKQDRGELKLLLLGPGESGKSTFIKQMRIIHGAGYSEEERKGFRPLVYQNIFVSMRAMIEAMERLQIPFSRPESKHHASLVMSQDPYKVTTFEKRYAAAMQWLWRDAGIRACYERRREFHLLDSAVYYLSHLERITEEGYVPTAQDVLRSRMPTTGINEYCFSVQKTNLRIVDVGGQKSERKKWIHCFENVIALIYLASLSEYDQCLEENNQENRMKESLALFGTILELPWFKSTSVILFLNKTDILEEKIPTSHLATYFPSFQGPKQDAEAAKRFILDMYTRMYTGCVDGPEGSNLKKEDKEIYSHMTCATDTQNVKFVFDAVTDIIIKENLKDCGLF
fluorescence signal after 10 uM cycloheximide, relative to wild-type Gα16 [2]: 5 fold vs wild-type Gα16
fluorescence signal after 2.5 mM aspartame, acesulfame K or sucralose, relative to wild-type Gα16 [4]: 2 fold vs wild-type Gα16
